Reference: patent US20240190987A1, “Engineered EpCam Binding Antibodies” (TigaTX, priority 2021, published 2024)
Substitutions are numbered along the chain they refer to. Numbers in names are those of the source. Entries after “also recorded” stand apart in the source; their conditions may differ. Values belong to the molecule of their own block, whether it stands above or below them.

Columns and labels:
LS2A R3M1 (Ab0786) = test: BLI binding of LS2B variants to LS2A R3M1 (Ab0786) with indinavir; settings: for binding to LS2A clones (FIG. 17): biotinylated Ab0785 (R2M34) or Ab0786 (R3M1) captured, indinavir present; for Kd: five-point kinetics, values equal Table 15 column LS2A Ab0786
Description: Binding kinetics were measured by biolayer interferometry (BLI). Biotinylated-Ab0785 (LS2A R2M34 Fab) or biotinylated-Ab0786 (LS2A R3M1 Fab) was captured by streptavidin biosensors and binding to Ab1071 (LS2B R5M2 Fab), Ab1072 (LS2B R7M1 Fab), and Ab1073 (LS2B R7M2 Fab) was measured in the presence of […].
In R6 of engineering, alanine scanning of clone R4M16 were performed to find improved binding to LS2A R3M2 (Ab0787) and LS2A R3M1 (Ab0786). Variants were screened for binding to LS2A (Ab0223) and LS2A R3M2 (Ab0787) with a single-point kinetic screen.
In R7, combination mutants from R6 were designed to generate further affinity variants. Variants were screened for binding to LS2A Ab0787 and Ab0786 with a single-point kinetic screen. Five-point kinetics was measured for a subset of molecules.
(§1) Bio-layer interferometry (BLI) data were measured using an Octet RED384 (ForteBio) instrument. Antigens of interest were immobilized on an AHC biosensor and loaded until a 0.4-0.6-nm signal was achieved. Purified antibodies were used as the analyte premixed with 10 μM Indinavir or 0.05% DMSO vehicle. PBSTB (PBS, pH 7.4, 0.05% Tween-20, 0.2% BSA) was used for all buffers for BLI. Data were analyzed using ForteBio Octet analysis software and kinetic parameters were determined using a 1:1 monovalent binding model.

Ag0067 (LS2A R2M9) = test: BLI LITE Switch indinavir washout/reversibility kinetics; format: binding
Description: Binding was measured by biolayer interferometry (BLI). Biotinylated-Ag0067 (LS2A R2M9) was captured on streptavidin biosensors. Binding of 50 nM Ab1073 (LS2B R7M2) to Ag0067 was allowed to reach steady-state in the presence of 1 μM IDV. Complex dissociation was subsequently performed for 2 hours in buffer containing (1) 50 nM Ab1073 and 1 μM IDV, (2) 50 nM Ab1073 and vehicle (washout), and (3) vehicle only. […] In 2 hours of IDV washout, the LITE Switch dissociated to nearly 0% complex, whereas complete complex dissociation was observed within 10 min upon removal of both Ab1073 and IDV.
LITE Switch indinivir (IDV) washout/reversibility kinetics (FIG. 21) were measured by biolayer interferometry (BLI) on an Octet® Qke (Sartorius) instrument. Biotinylated scFv-Fc Ag67, in the presence of 1 μM IDV or 0.05% DMSO vehicle, was immobilized on streptavidin biosensors and loaded to a signal of 1.2-1.8 nm. After loading, biosensors were blocked with 10 μM biotin containing 1 μM IDV or vehicle. […] Data were analyzed using ForteBio Data Analysis HT software version 12.0.2.59. Dissociation constants were determined using a 1:1 monovalent binding model, local fitting, and with dissociation baseline to zero. Data were additionally analyzed using GraphPad Prism 9 software version 9.1.2 (225) with a one-phase exponential decay nonlinear regression model. […]

[1] = Differential scanning fluorimetry (DSF) melting temperature; format: physicochemical
Description: DSF was performed on a LC480 Lightcycler Instrument II (Roche). Purified recombinant protein was diluted to 5 μM in DSF buffer (PBS, pH 7.4, Sypro Orange 5×) with small molecule (10 μM VTX) or vehicle (0.05% DMSO) and then heated with a temperature gradient (0.01° C./s) from 25 to 95° C. Data were continuously acquired at ˜465 nm (excitation) and ˜580 nm (emission). Data was analyzed to generate first derivative curves in which the curve maximum was reported as the melting temperature of the protein.

[2] = SPR binding of free indinavir to LS2A clones; settings: read-out: Affinity to free Indinavir by SPR
Description: Detailed methods are described in the methods section. […] A 3-fold serial dilution of indinavir was injected over sensor chip and binding was measured using single-cycle kinetics. The data was double reference subtracted and fit to a 1:1 Langmuir kinetic model.
All assays were performed at 25° C. in 1×PBS-P+ buffer made from a 10× buffer stock (Cytiva 28995084). […] For Ab0759, a single-cycle kinetics experiment was performed with five sequential injections of 3-fold serial diluted (37, 111, 333, 1000, 3000 nM) indinavir at 30 μL/min for 240 seconds each and dissociation was monitored for 600 seconds. […] The data was double referenced subtracted to the reference lane and five sequential injections of 0 nM indinavir. The kinetic data was fit to a 1:1 Langmuir model to determine the association and dissociation rate constants.

Ab0902 (LS2B R5M2) = test: BLI indinavir-dependent binding of LS2A Ab0223 to LS2B Ab0902
Description: Binding was measured by biolayer interferometry (BLI). Ab0902 (LS2B R5M2) was captured by anti-hIgG Fc capture (AHC) biosensors and kinetics was measured to Ab0223 (LS2A humanized parent) in the presence of […].
A series of biophysical experiments was conducted to further elucidate a mechanism for Indinavir switch assembly. Biolayer interferometry experiments were performed to measure LS2A and LS21B assembly in the presence and absence of saturating concentrations of Indinavir. […] A BLI kinetics assay was performed to assess the reversibility kinetics of the LS2A/LS2B complex upon Indinavir washout.
as §1

B1: Ab1071: LS2B R5M2 Fab (antibody, V domains shown)
VH: EVQLVESGGGLVQPGGSLRLSCAASGFDFSSYSIHWVRQAPGKGLEWVASISPYYGSTYYADSVKGRFTISADTSKNTAYLQMNSLRAEDTAVYYCARYYEWYKYDLYAGSLGFDYWGQGTLVTVSS
VL: DIQMTQSPSSLSASVGDRVTITCRASQSVSSAVAWYQQKPGKAPKLLIYSASSLYSGVPSRFSGSRSGTDFTLTISSLQPEDFATYYCQQGGYSLITFGQGTKVEIK
binding to LS2A clones (FIG. 17) (LS2A R3M1 (Ab0786)): weaker binding to LS2A R3M1 compared to LS2A R2M34

binding to LS2A clones (FIG. 17) (LS2A R3M1 (Ab0786)): improved affinities
B2: Ab1073: LS2B R7M2 Fab (antibody, V domains shown)
VH: B1 VH with S50A, W102Y
VL: B1 VL
LITE Switch reversibility at constant Ab1073 and IDV (Ag0067 (LS2A R2M9); 50 nM Ab1073 and 1 μM IDV): no LITE Switch reversibility was observed
complex remaining after IDV washout (Ag0067 (LS2A R2M9); 2 hours, 50 nM Ab1073 and vehicle): ~0%

Kd (LS2A R3M1 (Ab0786)): 8.6 nM
B3: Ab1044: LS2B; HC: S50A on Ab0902 (antibody, V domains shown)
VH: B1 VH with S50A
VL: B1 VL
TM (° C.) ([1]; Table 15): 78.3 °C

Kd (LS2A R3M1 (Ab0786)): 40 nM
B4: Ab1045: LS2B; HC: S50A+W98Y on Ab0902 (antibody, V domains shown)
VH: B1 VH with S50A, W102Y
VL: B1 VL
TM (° C.) ([1]; Table 15): 77.7 °C

binding to LS2A clones (FIG. 17) (LS2A R3M1 (Ab0786)): improved affinities
B5: Ab1072: LS2B R7M1 Fab (antibody, V domains shown)
VH: B1 VH with S50A
VL: B1 VL

B6: Ab1069: anti-EpCAM T-LITE (CT) antibody, FIGS. 8A-8C, 9C (protein)
light: DIQMTQSPSSLSASVGDRVTITCSASSSVSSGNFHWYQQKPGKAPKLLIYRTSNLASGVPSRFSGSGSGTDYTLTISSLQPEDFATYYCQQWSGYPYTFGQGTKVEIKRTVAAPSVFIFPPSDEQLKSGTASVVCLLNNFYPREAKVQWKVDNALQSGNSQESVTEQDSKDSTYSLSSTLTLSKADYEKHKVYACEVTHQGLSSPVTKSFNRGEC
heavy 1: QVQLVQSGAEVKKPGASVKVSCKASGYTFTSYWMHWVRQHPGQGLEWMGMIHPNSGGTNYAQKFQGRVTMTRDTSTSTVYMELSSLRSEDTAVYYCAMGDYVSRDYWGQGTLVTVSSGGGGSGGGGSGGGGSEIVLTQSPGTLSLSPGERATLSCRASSSVSSSYLHWYQQKPGQAPRLLIYSTSSRATGIPDRFSGSGSGTDFTLTISRLEPEDFAVYYCQQYSGYQFTFGQGTKLEIKGGGGSDKTHTCPPCPAPEAAGGPSVFLFPPKPKDTLMISRTPEVTCVVVDVSHEDPEVKFNWYVDGVEVHNAKTKPREEQYNSTYRVVSVLTVLHQDWLNGKEYKCKVSNKALGAPIEKTISKAKGQPREPMVFDLPPSREEMTKNQVSLWCMVKGFYPSDIAVEWESNGQPENNYKTTPPVLDSDGSFFLYSKLTVDKSRWQQGNVFSCSVMHEALHNHYTQKSLSLSPGKHHHHHH
heavy 2: EVQLVESGGGLVQPGGSLRLSCAASGFTFSNYWMNWVRQAPGKGLEWVAQIRVKSENFATHYADSVKGRFTISRDDSKSTVYLQMNSLRAEDTAVYYCTLYDGFSWGQGTLVTVSSASTKGPSVFPLAPSSKSTSGGTAALGCLVKDYFPEPVTVSWNSGALTSGVHTFPAVLQSSGLYSLSSVVTVPSSSLGTQTYICNVNHKPSNTKVDKKVEPKSCDKTHTCPPCPAPEAAGGPSVFLFPPKPKDTLMISRTPEVTCVVVDVSHEDPEVKFNWYVDGVEVHNAKTKPREEQYNSTYRVVSVLTVLHQDWLNGKEYKCKVSNKALGAPIEKTISKAKGQPREPQVYTLPPIRELMTSNQVSLSCAVKGFYPSDIAVEWESNGQPENNYKTTPPVLDSDGSFFLVSKLTVDKSRWQQGNVFSCSVMHEALHNHYTQKSLSLSPGK
modifications: REGION 1..215: note = Ab1069 Hole LC; REGION 1..478: note = Ab1069 Knob KC; REGION 1..446: note = Ab1069 Hole HC
TM (° C.) ([1]; thermostability by DSF, Table 27): 72.0 °C

Kd [2]: 4.6 nM
B7: Ab0899: humanized LS2A R3M1 (protein)
scFv: QVQLVQSGAEVKKPGASVKVSCKASGYTFTSYWMHWVRQHPGQGLEWMGMIHPNSGGTNYAQKFQGRVTMTRDTSTSTVYMELSSLRSEDTAVYYCAMGDYVSRDYWGQGTLVTVSSGGGGSGGGGSGGGGSEIVLTQSPGTLSLSPGERATLSCRASSSVSSSYLHWYQQKPGQAPRLLIYSTSSRATGIPDRFSGSGSGTDFTLTISRLEPEDFAVYYCQQYSGYQFTFGQGTKLEIK
modifications: left off: a dimerising Fc or GST; small tags and cut ends
notes: humanized LS2A R3M1
TM (° C.) ([1]; scFv-Fc format, LS2A R3 (Table 20)): 56.1 °C

Kd (Ab0902 (LS2B R5M2); in the presence of 10 μM IDV, read-out: affinity for binding to Ab0902): 1.6 nM
B8: Ab0223: LS2A humanized parent (antibody, V domains shown)
VH: QVQLVQSGAEVKKPGASVKVSCKASGYTFTSYWMHWVRQAPGQGLEWMGIIHPNSGGTSYAQKFQGRVTMTRDTSTSTVYMELSSLRSEDTAVYYCAMGDYVSRDYWGQGTLVTVSS
VL: EIVLTQSPGTLSLSPGERATLSCRASSSVSSSYLHWYQQKPGQAPRLLIYSTSSRATGIPDRFSGSGSGTDFTLTISRLEPEDFAVYYCQQYSGYLFTFGQGTKLEIK
binding to Ab0902 in the absence of Indinavir (Ab0902 (LS2B R5M2); no indinavir): no binding was detected; also recorded: no detectable interaction
